Experimental data as given in PMC7545097, “Mapping the native interaction surfaces of PREP1 with PBX1 by cross-linking mass-spectrometry and mutagenesis” (Scientific Reports, 2020).
Residue numbers refer to the chain shown, from its start.

Experiments:
Experiment in all cases: time-resolved fluorescence immunoassay (TR-FIA); plate coated with monoclonal anti-PBX1; PBX1 pre-incubated with PREP1 or MEIS1 for 1 h on ice, 10 µg/mL in 1% BSA PBS, 1 h at room temperature on the plate; detected with anti-PREP1 or biotinylated anti-MEIS1/2 and Eu^3+ conjugates; normalised to the wild-type protein taken as 1
Conditions in all cases: both partners purified
[1] = target: T1, PBX1Δ43-55 (human, UniProt P40424 1-430, Δ43-55)
T1 construct: PBX1, residues 1-430, with an internal deletion; source: E. coli, purified
T1 sequence (looked up): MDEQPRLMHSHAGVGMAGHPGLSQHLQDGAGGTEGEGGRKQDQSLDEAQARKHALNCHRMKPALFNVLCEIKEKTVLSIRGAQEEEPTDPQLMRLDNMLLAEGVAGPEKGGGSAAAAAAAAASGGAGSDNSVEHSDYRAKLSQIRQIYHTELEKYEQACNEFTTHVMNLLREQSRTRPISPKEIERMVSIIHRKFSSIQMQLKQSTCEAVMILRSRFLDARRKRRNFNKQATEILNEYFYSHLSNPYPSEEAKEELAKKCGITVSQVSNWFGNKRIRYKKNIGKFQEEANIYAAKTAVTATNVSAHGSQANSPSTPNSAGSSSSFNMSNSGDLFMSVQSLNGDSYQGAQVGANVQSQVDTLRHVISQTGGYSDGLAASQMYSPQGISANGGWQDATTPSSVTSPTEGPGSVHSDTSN

[2] = target: T2, PBX1 I211A (human, UniProt P40424 1-430, I211A)
T2 construct: PBX1, residues 1-430; source: E. coli, purified
T2 sequence (looked up): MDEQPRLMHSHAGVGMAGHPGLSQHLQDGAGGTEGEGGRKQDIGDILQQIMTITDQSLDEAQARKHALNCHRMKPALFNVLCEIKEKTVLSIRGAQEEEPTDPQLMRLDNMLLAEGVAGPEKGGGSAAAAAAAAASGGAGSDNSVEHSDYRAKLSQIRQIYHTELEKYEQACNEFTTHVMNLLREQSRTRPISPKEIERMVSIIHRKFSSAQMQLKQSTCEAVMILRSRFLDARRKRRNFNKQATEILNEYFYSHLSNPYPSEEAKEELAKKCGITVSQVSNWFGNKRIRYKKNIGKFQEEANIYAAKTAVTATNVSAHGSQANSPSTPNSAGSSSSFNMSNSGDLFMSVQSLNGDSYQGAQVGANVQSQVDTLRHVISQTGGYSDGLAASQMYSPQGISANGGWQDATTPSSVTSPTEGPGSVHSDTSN

[3] = target: T3, PBX1 I204A (human, UniProt P40424 1-430, I204A)
T3 construct: PBX1, residues 1-430; source: E. coli, purified
T3 sequence (looked up): T2 sequence (looked up) with I204A, A211I

[4] = target: T4, PBX1 Δ77-84 (human, UniProt P40424 1-430, Δ77−84)
T4 construct: PBX1, residues 1-430, with an internal deletion; source: E. coli, purified
T4 sequence (looked up): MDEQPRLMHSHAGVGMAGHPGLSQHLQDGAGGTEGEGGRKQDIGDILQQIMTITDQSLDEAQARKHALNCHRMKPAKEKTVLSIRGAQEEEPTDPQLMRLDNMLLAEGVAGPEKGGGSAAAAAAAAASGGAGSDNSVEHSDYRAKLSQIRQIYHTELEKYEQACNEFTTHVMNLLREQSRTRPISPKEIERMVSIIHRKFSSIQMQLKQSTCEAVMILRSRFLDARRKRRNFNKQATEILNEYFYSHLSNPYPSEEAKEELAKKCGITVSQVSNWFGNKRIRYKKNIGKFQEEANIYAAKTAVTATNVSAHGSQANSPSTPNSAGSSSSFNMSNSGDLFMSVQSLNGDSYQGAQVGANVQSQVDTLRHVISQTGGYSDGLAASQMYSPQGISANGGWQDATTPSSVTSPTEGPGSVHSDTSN

B1: PREP1_(1-436), wild-type recombinant (TR-FIA) (natural protein, UniProt P55347 1-436, looked up)
chain: MMATQTLSIDSYQDGQQMQVVTELKTEQDPNCSEPDAEGVSPPPVESQTPMDVDKQAIYRHPLFPLLALLFEKCEQSTQGSEGTTSASFDVDIENFVRKQEKEGKPFFCEDPETDNLMVKAIQVLRIHLLELEKVNELCKDFCSRYIACLKTKMNSETLLSGEPGSPYSPVQSQQIQSAITGTISPQGIVVPASALQQGNVAMATVAGGTVYQPVTVVTPQGQVVTQTLSPGTIRIQNSQLQLQLNQDLSILHQDDGSSKNKRGVLPKHATNVMRSWLFQHIGHPYPTEDEKKQIAAQTNLTLLQVNNWFINARRRILQPMLDSSCSETPKTKKKTAQNRPVQRFWPDSIASGVAQPPPSELTMSEGAVVTITTPVNMNVDSLQSLSSDGATLAVQQVMMAGQSEDESVDSTEEDAGALAPAHISGLVLENSDSLQ
notes: also called wild-type PREP1; PKNOX1; source: E. coli, purified
- binding relative to wild type [1]: 80%
- binding relative to wild type [2]: ~65%
- binding relative to wild type [3]: ~65%
- binding relative to wild type [4]: 35%
